Assay [1] concerns the target T1, FcγRI (UniProt P12314 16-288).
T1 construct: also called CD64
The assay is described as follows: BLI (Octet); legend: - indicates no binding. As to the method: (§1) Binding of complement-preferential stradomers or parent stradomer G045c to FcγRI, FcγRIIb, FcγRIIIa, FcγRIIa, or FcRn was assessed. RU values of dissociation were measured by biolayer interferometry using a ForteBio Octet instrument. His-tagged receptor proteins were bound to the sensor tip in 1× kinetic analysis buffer from ForteBio after which the on rate of the receptor/protein was measured by transferring the sensor tip to a 1× kinetics buffer containing the purified stradomer of choice. Off rate was measured by transferring the sensor tip to a 1× kinetics buffer, and RU value was calculated from the measured maximum binding using the ForteBio software. Biolayer interferometry detects the binding between a ligand immobilized on the biosensor tip surface and an analyte in solution. When binding occurs it produces an increase in optical thickness at the biosensor tip, which results in a wavelength shift (detected as a response unit of “RU”). The maximum binding level (RU max) is the maximum possible amount of sample binding at equilibrium that saturates the amount of ligand on the sensor surface. The RU 300 is the residual sample binding after 300 seconds of dissociation and is useful to characterize the rate of dissociation of the test article from the test ligand.
Background: BLI is a label-free optical method that tracks binding on a fibre tip over time.

Assay [2] addresses FcγRIIIa (UniProt P08637 17-208). Briefly: BLI (Octet); legend: - indicates no binding. As for the experimental part:
as §1

Assay [3] addresses T2, FcγRIIb (UniProt P31994 46-217, limits assumed).
T2 sequence (looked up): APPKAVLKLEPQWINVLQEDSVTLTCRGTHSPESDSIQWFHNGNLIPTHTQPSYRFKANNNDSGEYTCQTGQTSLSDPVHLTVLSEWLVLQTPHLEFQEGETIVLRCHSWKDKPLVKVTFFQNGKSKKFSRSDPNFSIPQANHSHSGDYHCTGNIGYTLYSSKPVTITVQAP
Briefly: BLI (Octet).

For assay [4], the target named is T3, C1q (UniProt P02745 23-245; P02746 28-253; P02747 29-245).
T3 construct: bought C1q coated on ELISA plates at 1 µg/ml; also called complement C1q; complement factor C1q
T3 sequence (P02745 23-245 limits assumed, chain 1 of 3): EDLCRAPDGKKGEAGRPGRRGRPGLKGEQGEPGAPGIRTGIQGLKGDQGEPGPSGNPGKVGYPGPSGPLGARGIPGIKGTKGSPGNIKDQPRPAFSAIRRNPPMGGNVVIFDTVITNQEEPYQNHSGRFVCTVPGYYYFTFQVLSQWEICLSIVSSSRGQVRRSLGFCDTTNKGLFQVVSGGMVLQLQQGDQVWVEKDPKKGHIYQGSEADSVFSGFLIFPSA
T3 sequence (P02746 28-253 limits assumed, chain 2 of 3): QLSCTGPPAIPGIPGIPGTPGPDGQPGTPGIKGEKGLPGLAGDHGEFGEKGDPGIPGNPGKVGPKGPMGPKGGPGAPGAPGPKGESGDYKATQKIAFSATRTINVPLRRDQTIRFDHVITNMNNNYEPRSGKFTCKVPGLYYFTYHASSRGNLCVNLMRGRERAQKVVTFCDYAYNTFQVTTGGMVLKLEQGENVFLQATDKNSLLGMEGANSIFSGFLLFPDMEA
T3 sequence (P02747 29-245 limits assumed, chain 3 of 3): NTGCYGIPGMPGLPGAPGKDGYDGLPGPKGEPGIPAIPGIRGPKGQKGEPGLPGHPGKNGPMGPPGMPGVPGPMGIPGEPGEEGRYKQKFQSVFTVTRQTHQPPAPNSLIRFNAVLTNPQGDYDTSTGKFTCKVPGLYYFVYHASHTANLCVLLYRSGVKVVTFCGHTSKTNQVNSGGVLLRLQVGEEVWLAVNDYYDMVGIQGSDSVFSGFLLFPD
The assay is described as follows: ELISA on coated C1q. In short, it runs like this: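 Plates coated overnight with C1q at 1 μg/ml in PBS, blocked with 1% BSA, then incubated with compound. Bound compound detected by biotinylated anti-human IgG1 (1:5000) plus streptavidin-HRP, 1 h at RT; TMB developed 15 min, absorbance at 450 nm.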
(An ELISA detects its analyte on a solid surface through an enzyme-linked reagent.)

In assay [5] the target is T1, FcγRI. Briefly: BLI (Octet).
The target in assay [6] is T4, C3 complement component (UniProt P01024 23-1663).
T4 construct: bought protein coated on ELISA plates at 1 µg/ml
The assay is described as follows: ELISA on coated C3.

The target in assay [7] is T5, mouse FcγRIIb (mouse, UniProt P08101 30-207, limits assumed).
T5 sequence (looked up): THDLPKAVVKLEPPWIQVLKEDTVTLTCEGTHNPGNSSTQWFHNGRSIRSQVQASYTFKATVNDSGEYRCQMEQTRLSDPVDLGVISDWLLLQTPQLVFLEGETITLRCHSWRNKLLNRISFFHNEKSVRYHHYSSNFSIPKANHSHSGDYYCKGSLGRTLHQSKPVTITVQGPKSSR
Briefly: BLI (Octet), FIG. 19 bottom panels.

For assay [8], the target named is T6, mouse FcγRIII (mouse, UniProt P08508 31-215, limits assumed).
T6 sequence (looked up): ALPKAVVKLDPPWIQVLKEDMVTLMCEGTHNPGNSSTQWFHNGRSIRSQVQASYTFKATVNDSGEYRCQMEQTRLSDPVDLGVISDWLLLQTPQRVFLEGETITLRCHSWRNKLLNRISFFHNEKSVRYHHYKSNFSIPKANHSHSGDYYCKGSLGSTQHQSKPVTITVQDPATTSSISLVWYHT
Briefly: BLI (Octet), FIG. 19 bottom panels.

Assay [9] has as its target T7, mouse FcγRIV (mouse, UniProt A0A0B4J1G0 21-203).
T7 construct: not shown: any purification tag (e.g. His tag) on the soluble recombinant receptor used in biolayer interferometry; not described in the passages seen
T7 sequence: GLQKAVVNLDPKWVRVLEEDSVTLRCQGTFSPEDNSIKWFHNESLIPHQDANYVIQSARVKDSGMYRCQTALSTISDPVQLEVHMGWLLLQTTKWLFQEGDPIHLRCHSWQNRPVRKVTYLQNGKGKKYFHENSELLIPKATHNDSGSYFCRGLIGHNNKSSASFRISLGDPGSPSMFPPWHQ
The assay is described as follows: BLI (Octet), FIG. 19 bottom panels.

Assay [10] deals with T2, FcγRIIb. The assay is described as follows: BLI (Octet); legend: - indicates no binding. As to the method:
as §1

T1 sequence (P12314 16-288 limits assumed): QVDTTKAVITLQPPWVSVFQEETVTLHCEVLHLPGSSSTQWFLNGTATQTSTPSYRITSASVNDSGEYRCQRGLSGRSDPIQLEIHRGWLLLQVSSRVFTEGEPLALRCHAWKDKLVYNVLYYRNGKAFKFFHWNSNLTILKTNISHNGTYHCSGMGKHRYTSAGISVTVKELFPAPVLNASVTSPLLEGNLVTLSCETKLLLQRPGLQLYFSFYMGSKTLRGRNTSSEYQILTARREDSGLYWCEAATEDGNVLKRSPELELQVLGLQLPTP
Sequence of FcγRIIIa (P08637 17-208 limits assumed): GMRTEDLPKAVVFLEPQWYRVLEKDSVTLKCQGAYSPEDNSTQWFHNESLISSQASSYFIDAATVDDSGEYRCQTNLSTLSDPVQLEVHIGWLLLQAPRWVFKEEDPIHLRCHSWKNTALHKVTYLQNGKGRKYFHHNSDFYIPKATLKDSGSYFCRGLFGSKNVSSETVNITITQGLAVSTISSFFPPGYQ

B1: G1022 (Fc fusion)
chain: EPKSCDKTHTCPPCPAPPVAGPSVFLFPPKPKDTLMISRTPEVTCVVVDVEFEDPEVKFNWYVDGVEVHNAKTKPREEQYASTYRVVSVLTVLHQDWLNGKEYKCKVTNKALPAPIEKTISKAKGQPREPQVYTLPPSRDELTKNQVSLTCLVKGFYPSDIAVEWESNGQPENNYKTTPPVLDSDGSFFLYSKLTVDKSRWQQGNVFSCSVMHEALHNHYTQKSLSLSPGKERKCCVECPPCP
notes: G045c background, E233P/L234V/L235A/S267E/H268F/N297A/S324T, G236 deleted; leader 1-20 cleaved
As to B1, the binding result in assay [1] and in [2] was “no binding” in each case.

B2: G1050 (Fc fusion)
chain: EPKSCDKTHTCPPCPAPPVAGPSVFLFPPKPKDTLMISRTPEVTCVVVDVEFEDPEVKFNWYVDGVEVHNAKTKPREEQYASTYRVVSVLTVLHQDWLNGKEYKCKVTNKAFPAPIEKTISKAKGQPREPQVYTLPPSRDELTKNQVSLTCLVKGFYPSDIAVEWESNGQPENNYKTTPPVLDSDGSFFLYSKLTVDKSRWQQGNVFSCSVMHEALHNHYTQKSLSLSPGKERKCCVECPPCP
notes: G045c background, E233P/L234V/L235A/S267E/H268F/N297A/S324T/L328F, G236 deleted; leader 1-20 cleaved
Consider B2, for which the binding result is listed as “binds” in [3], “binds” in assay [4], “no binding” in [1] and “no binding” in [2].

B3: G996 (Fc fusion)
chain: EPKSCDKTHTCPPCPAPELLRGPSVFLFPPKPKDTLMISRTPEVTCVVVDVEFEDPEVKFNWYVDGVEVHNAKTKPREEQYNSTYRVVSVLTVLHQDWLNGKEYKCKVTNKALPAPIEKTISKAKGQPREPQVYTLPPSRDELTKNQVSLTCLVKGFYPSDIAVEWESNGQPENNYKTTPPVLDSDGSFFLYSKLTVDKSRWQQGNVFSCSVMHEALHNHYTQKSLSLSPGKERKCCVECPPCP
notes: G045c background, G236R/S267E/H268F/S324T; leader 1-20 cleaved
On to B3, for which the binding result in [5] is given as “binds”; in assay [3] it was “binds”; in assay [6] it was “no binding (tested: 100 µg/ml top concentration)”; in assay [4] it was “binds”; in [7], “no binding”; in assay [8], “no binding”. The binding result in assay [9] and in assay [2] was “no binding” in each case.

B4: G1033 (Fc fusion)
chain: EPKSCDKTHTCPPCPAPEAAGGPSVFLFPPKPKDTLMISRTPEVTCVVVDVEFEDPEVKFNWYVDGVEVHNAKTKPREEQYASTYRVVSVLTVLHQDWLNGKEYKCKVTNKALPAPIEKTISKAKGQPREPQVYTLPPSRDELTKNQVSLTCLVKGFYPSDIAVEWESNGQPENNYKTTPPVLDSDGSFFLYSKLTVDKSRWQQGNVFSCSVMHEALHNHYTQKSLSLSPGKERKCCVECPPCP
notes: G045c background, L234A/L235A/S267E/H268F/N297A/S324T; leader 1-20 cleaved; also called G1033 (DEL); G1033 (EEM)
As for B4, the binding result in assay [5] is reported as “binds”; in assay [4], “binds”; in assay [10], “no binding”; in assay [2], “no binding”.

For the origin of these results see patent US20250011433A1 (GLIKNIK, published 2025).
